# Experimental data published in publication PMC2430334.
# Biological target: T1, rOxyR (Porphyromonas gingivalis 33277?) (UniProt B2RHP2)
# T1 sequence: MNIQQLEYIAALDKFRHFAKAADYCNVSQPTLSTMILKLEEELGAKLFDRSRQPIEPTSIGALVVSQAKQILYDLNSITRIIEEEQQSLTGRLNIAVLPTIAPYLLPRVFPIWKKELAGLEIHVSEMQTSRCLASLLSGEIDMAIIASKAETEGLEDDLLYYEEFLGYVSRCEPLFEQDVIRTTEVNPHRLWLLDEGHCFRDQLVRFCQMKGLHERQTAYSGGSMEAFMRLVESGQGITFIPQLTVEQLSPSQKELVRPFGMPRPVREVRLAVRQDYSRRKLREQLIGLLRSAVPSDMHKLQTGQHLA
# Experiment: EMSA
row,Sequence,binding
1,CTTTTCGCCCGAAGGTTTTATCTTCCGGCCGGAGCTTTCGGATGAGATCAACTACCTTTTCGTCATGGAATGAATCGGTTTTTACGACCAAGATTCGAACCTTTTTCCGTTCATCATGTTCTTATAATGATTAAAAAGTTGTCGGTGTCGGTTTTACACTGCTCCGATACAAATTATTAAAAGACTTAATTACAATAAAAATCAGACGTT (double strand) [sod promoter region],binds
2,CGTCTTACCGGCTTCCCTATAGCAAAGGAAAGCATTTTTTTCTACTAAAAATTAATTCTAACAATATTCTGCTGTCTTCTACGTGTTTATACGCAGAAAAACGAAAAAAAACCGCACTACTCAATAAAAAAAACGCGATATTGACCCTCGCGAGAG (double strand) [mfa1 promoter region],no binding
